Laboratory results taken from the DeepSol protein solubility set.

Experiment: soluble on expression in E. coli; label from the status in PepcDB or PDB records

Row | Sequence | soluble on expression in E. coli
1 | AHHHHHHGSRIVVIGSGTAGSNFALFMRKLDRKAEITVIGKEETMQYSPCALPHVISGVIEKPEDVIVFPNEFYEKQRIKLLLNTEAKKIDRERKVVVTDKGEIPYDKLVIATGSKAFVPPIKGVENEGVFTLKSLEDVRKIKEFIKKRNPKNAVVIGAGLIGLEGAEAFAKLGMKVTVVELLEHLLPTMLDKDIAKIVEENMRKYGVDFKFGVGVDEIIGDPVEKVKVGEEEIDADIVLVATGVRANVELAKEAGLEVNRGIVVNEYLQTSDPDIYAIGDCAEVIDAVTGKRTLSQLGTSAVRMAKVAAENIAGRNVKFRPVFNTAITEIFDLEIGAFGITEERAKKEEIEVVVGKFRGSTKPEYYPGGKPIVVKLIFRKEDRRLIGAQIVGGERVWGRIMTLSALAQKGATVEDVVYLETAYAPPISPTIDPITIAAEMAMRKL | soluble
2 | AIAGIQAEQSPQNYFEGTVSQPSSRFSTTHKGLSGGYNLGLLVKMELQHSFIGKDNGISYLETKLSGFHHLPVIP | soluble
3 | AIANGTELRETLEDLIKEVVQASREALDTQGELNERNEAALRTLEAQWRQRLIEELHEQGSLRVVLCRTDLLVPGSGATGTTTTNRTDPLRYVYETLRQRDPRERRRSLPPERSSQSSELEDTGTDSGEALSSGDDDDEISQVAGQPEPETANYVLSQYERVLAPSTNKQRIWRVFLRDAMVHINGQDLLLNQLQCQFDW | soluble
4 | AIAVIVSRCGTGGSVTEHANEVVMKLEALQRPGGLPLSILLVLAGLTKRGASDLRHPIAEDRQSLSCATVQPSLQDV | soluble
5 | AIKDAATKLFDPYEILGISTSASDRDIKSAYRKLSVKFHPDKLAKGLTPDEKSVMEETYVQITKAYESLTDELVRQNYLKYGHPDGPQSTSHG | not soluble
6 | AKDFEWNFAATLSMDKNKVTRLYGDNDVVYNVDSDRNIQKEGNLFLGESRNTIYIWKTGGIAQEIDMDRLNKINWNGYNVNPGDLYPLDYDNNGQIDQNDRVVIGSTDPKFYGGFSTDFSWKGLSLNAVFSYSYGAKKLSPWYETLIGSTGSGVASTDLLDRWTPENTDAEFPRVLAGFDYNHYGASSMDFSVQKASFLRLSALTLAYTFPTKVINALKLTNLRVYATGSNLFCLTNYNGYDPETGDWYPPTRMYTFGLNLAF | not soluble
7 | AKDNYGKLPLIQSRDSDRTGQKRVKFVDLDEAKDSDKEVLFRARVHNTRQQGATLAFLTLRQQASLIQGLVKANKEGTISKNMVKWAGSLNLESIVLVRGIVKKVDEPIKSATVQNLEIHITKIYTISETPEALPILLEDASRSEAEAEAAGLPVVNLDTRLDYRVIDLRTVTNQAIFRIQAGVCELFREYLATKKFTEVHTPKLLGAPSEGGSSVFEVTYFKGKAYLAQSPQFNKQQLIVADFERVYEIGPVFRAENSNTHRHMTEFTGLDMEMAFEEHYHEVLDTLSELFVFIFSELPKRFAHEIELVRKQYPVEEFKLPKDGKMVRLTYKEGIEMLRAAGKEIGDFEDLSTENEKFLGKLVRDKYDTDFYILDKFPLEIRPFYTMPDPANPKYSNSYDFFMRGEEILSGAQRIHDHALLQERMKAHGLSPEDPGLKDYCDGFSYGCPPHAGGGIGLERVVMFYLDLKNIRRASLFPRDPKRLRP | soluble
8 | AKDWFVAVFANMAHNENKITKISDSLKEYNKRVQEKYAKYDSGKGDSKYSETYLQYVEGGSLTSIFGVRSLGINPADGKEIYLRPDGTITYDWNAADQVVIGNEEPKLQGTFGFNLRWKQFSLYSTFMYEFGGQRYNSTLVSKVENAHIQSSNVDRRVLTGRWQKPGDCTPYGRLQTDGVVAVTRPTSRFIQDYNVLTFNSLTLGYDFNAEWLKKARIGLLRVELSGNDLFRVATVRAERGLDYPYSRSFAASVKMSF | not soluble
9 | AKFSAIITDKVGLHARPASVLAKEASKFSSNITIIANEKQGNLKSIMNVMAMAIKTGTEITIQADGNDADQAIQAIKQTMIDTALIQG | soluble
10 | AKGRAGRSKRTEQDHYETDYTTGGESCDELEEDWIREYPPITSDQQRQLYKRNFDTGLQEYKSLQSVLDEINKELSRLDKELDDYREESEEYMAAADEYNRLKQVKGSADYKSKKNHCKQLKSKLSHIKKMVGDYDRQKT | soluble
11 | ALKQKIIGNGEKRVVTYAPTWREDDFISVGHYHFRWHFSLKKMMGLLPEDVMLLIRPHYLVTDRIDIKGFEDRVVIDSTTDMNEIYLITDLMVTDYSSVMFDFAILKRPMLFFAYDLEYYRDDLRGFYFDYYTELPGSIVTDETHLLAEIDQLLQNNFAELDPERFNKFAKRFVSWERGTAAQQVIEKINYRRDEK | not soluble
12 | ALRGTVTDFSGFDGEADAEVLEKAMEGLGTDEDSILNLLTARSNAQRQQIAEEFETLFGRDLVNDMKSELTGKFEKLIVALMKPSRLYDAYELKHALKGAGTDEKVLTEIIASRTPEELRAIKQAYEEEYGSNLEDDVVGDTSGYYQRMLVVLLQANRDPDTAIDDAQVELDAQALFQAGELKWGTDEEEFITILGTRSVSHLRRVFDKYMTISGFQIEETIDRETSGNLENLLLAVVKSIRSIPAYLAETLYYAMKGAGTDDHTLIRVIVSRSEIDLFNIRKEFRKNFATSLYSMIKGDTSGDYKKALLLLSGGEDD | soluble
13 | ALYNVDAGHRAVIFDRFRGVQDIVVGEGTHFLIPWVQKPIIFDCRSRPRNVPVITGSKDLQNVNITLRILFRPVASQLPRIFTSIGEDYDERVLPSITTEILKSVVARFDAGELITQRELVSRQVSDDLTERAATFGLILDDVSLTHLTFGKEFTEAVEAKQVAQQEAERARFVVEKAEQQKKAAIISAEGDSKAAELIANSLATAGDGLIELRKLEAAEDIAYQLSRSRNITYLPAGQSVLLQLPQ | not soluble
14 | AMGSVTVHSSEPEVRIPENNPVKLSCAYSGFSSPRVEWKFDQGDTTRLVCYNNKITASYEDRVTFLPTGITFKSVTREDTGTYTCMVSEEGGNSYGEVKVKLIVLVPPSKPTVNIPSSATIGNRAVLTCSEQDGSPPSEYTWFKDGIVMPTNPKSTRAFSNSSYVLNPTTGELVFDPLSASDTGEYSCEARNGYGTPMTSNAVRMEAVE | soluble
15 | AMSNNKIKRKDASPEQEAIESFTSLTKCDPKVSRKYLQRNHWNINYALNDYYDKEIGTFTDEVSTVAHPPVYPKELTQVFEHYINNNLFDIDSLVKFIEELGYNLEDLATLCLAHLLGYKKLEEPLKREDFLSTWFMQGCSTISDMQECIKTLDVKLHEDLQYFTQIYNYAFNLILDPNRKDIDTDEGIQYWKLFFQPEYPVRMEPDLLEAWFRFLRDEGKTTISKDTWRMLLLFFKRYPTIQKIISDYDETAAWPFIIDEFYECLQDQQ | soluble
16 | AMVSVSGIRKVQRAEGPATVLAIGTANPPNCVDQSTYADYYFRVTNSEHMTDLKKKFQRICERTQIKNRHMYLTEEILKENPNMCAYKAPSLDAREDMMIREVPRVGKEAATKAIKEWGQPMSKITHLIFCTTSGVALPGVDYELIVLLGLDPSVKRYMMYHQGCFAGGTVLRLAKDLAENNKDARVLIVCSENTSVTFRGPSETDMDSLVGQALFADGAAAIIIGSDPVPEVENPLFEIVSTDQQLVPNSHGAIGGLLREVGLTFYLNKSVPDIISQNINDALSKAFDPLGISDYNSIFWIAHPGGRAILDQVEEKVNLKPEKMKATRDVLSNYGNMSSACVFFIMDLMRKKSLEAGLKTTGEGLDWGVLFGFGPGLTIETVVLRSMAI | soluble
17 | AMYEKPPVEKLIEELRQLKEKAYKGGGDERIQFQHSKGKLTARERLALLFDDGKFNEIMTFATTRATEFGLDKQRFYGDGVVTGWGKVDGRTVFAYAQDFTVLGGSLGETHANKIVRAYELALKVGAPVVGINDSGGARIQEGALSLEGYGAVFKMNVMASGVIPQITIMAGPAAGGAVYSPALTDFIIMIKGDAYYMFVTGPEITKVVLGEEVSFQDLGGAVVHATKSGVVHFMVDSEQEAINLTKRLLSYLPSNNMEEPPYIDTGDPADRDATGVEQIVPNDAAKPYNMREIIYKIVDNGEFLEVHKHWAQNIIVGFARIAGNVVGIVANNPEEFGGSIDIDAADKAARFIRFCDAFNIPLISLVDTPGYVPGTDQEYKGIIRHGAKMLYAFAEATVPKITVIVRKSYGGAHIAMSIKSLGADLVYAWPTAEIAVTGPEGAVRILYRKEIQQASNPDDVLKQRIAEYRKLFANPYWAAEKGLVDDVIEPKDTRRVIVAGLEMLKTKREYRYPKKHGNIPL | soluble
18 | ANAFLEELRPGSLERECKEEQCSFEEAREIFKDAERTKLFWISYSDGDQCASSPCQNGGSCKDQLQSYICFCLPAFEGRNCETHKDDQLICVNENGGCEQYCSDHTGTKRSCRCHEGYSLLADGVSCTPTVEYPCGKIPILEKRNASKPQGR | soluble
19 | ANIIANTALTIGATKVDVKEITPELLASLNEIGGSEANVASGYHAIEFLLWGQDLNGTKAGAGARSYTDYLQGKACTNNHCDRRAQYLKAAAQLLVTDLEWMEKQWASGEKDNYRQQLLSESAENGLRKMLFGMGSLSLGELAGERMKVALEANSTEDEHDCFSDNTHNSHYYNEQGIYNIYTGSYTRADGSELKGPSLYQLVAEKDANAAKEILQQFEAARTQVGELVTAAEKNNQHFDQLIAADNAAGHAIINQAIMALVAQTGSIERAAGIIGIDNLNPDTADHEF | not soluble
20 | APAHADHQITKRTDAENMYNTIQFLSQAPRVAGSPEELKAVRYIEQQFKSYGYHVEVQPFQFEGYTAPSEVTLKIGTEKKEGEAFTYSPNSDVTAELVYVGLGTTADVAGKDLNGKIALIQRGNISFADKVRNAAKQGAKAVIIYNNTDGKLNGTLGGSDASFVAAVGITKQEGDALAANLRAGEKITATVKVAGAEVKTLTSHNVIATKKPDANKKNTNDIIIIGSHHDSVEKAPGANDDASGVAVTLELARVMSKLKTDTELRFITFGAEENGLIGSKKYAASLSEDEIKRTIGMFQLDMVGSKDAGDLIMYTIDGKKNRVTDLGAAASSRLSGVLPYGQEGRSDHESFHALGIPAALFIHAPVEPWYHTPNDTLDKISKEKLDNVADIVGSAVYQAARPGELVIEPIDYPRRNVELQN | soluble
21 | APLFIKNVNGIKVAILSYAYGFNGLESNLTEKEIANHLSNLDEKRMKVEIERAEKEADVTVIMPQMGVEYRLEPTDEQVKLYHKMIDWGADIIFGGHPHVVEPSEVVKKDGQQKLIIYSMGNFISNQRIETVDGVDNAAWTERSVLMDVTLEKKNCQTTIKTAQAHPTWVNRTPKGTISPEGYPLYTYQTYILEDFIKGRKYRNKLDEETKERIDTAYKEMNAHVNL | not soluble
22 | APSYRVKRADIATCTEAAVVNAANARGTVGDGVCRAVAKKWPSAFKGAATPVGTIKTVMCGSYPVIHAVAPNFSATTEAEGDRELAAVYRAVAAEVNRLSLSSVAIPLLSTGVFSGGRDRLQQSLNHLFTAMDATDADVTIYCRDKSWEKKIQEAIDMRTAVELLNDDVELTTDLVRVHPDSSLVGRKGYSTTDGSLYSYFEGTKFNQAAIDMAEILTLWPRLQEANERICLYALGETMDNIGSKCPVNDSDSSTPPRTVPCLCRYAMTAERIARLRSHQVKSMVVCSSFPLPKYHVDGVQKVKCEKVLLFDPTVPSVVSPRKYAASTTDHSDRSLRGFDLDWTTDSSSTASDTMSLPSLQSCDIDSIYEPMAPIVVTADVHPEPAGIADLAADVHPEPADHVDLENPIPPPRPKRAAYLASRAAERPVPAPRKPTPAPRTAFRNKLPLTFGDFDEHEVDALASGITFGDFDDVLRLGRAGA | not soluble
23 | AQAALKDGTYSVDYTVLQGDSDSVSMANDYFDKPATVTVNGGKSTVSLQVNHSKWITGLWVEGNAVSVTSKNTASDTRKVSFPVSTLSSPVNAKIKVDIDDDGLNYHHEYQIQLRFDEGAVKSSGAAV | not soluble
24 | AQAFVNSKIQPGKVVVFIKPTCPFCRKTQELLSQLPFKEGLLEFVDITATSDTNEIQDYLQQLTGARTVPRVFIGKECIGGCTDLESMHKRGELLTRLQQVGAVK | soluble
